Assay results published in patent US20180134794A1 (Regeneron, published 2018).

Columns and labels:
[1] = biological target: T1, human MET (c-Met, hepatocyte growth factor receptor), endogenous on human cell lines (human, UniProt P08581 25-1390); test: flow cytometry, Hs746t cells (endogenous MET), antibody 10 ug/ml
T1 construct: whole, on cells; also called HGFR
Procedure: (§1) After one additional wash with FACS buffer, samples were fixed with Cytofix (BD Biosciences, #554655), filtered with FACS buffer and run on an iQue flow cytometer (Intelicyte). Mean fluorescence intensity (MFI) data was determined using FlowJo software (FlowJo LLC).

[2] = biological target: T1, human MET (c-Met, hepatocyte growth …); test: flow cytometry, SNU-5 cells (endogenous MET), antibody 10 ug/ml
Procedure: as §1

[3] = biological target: T1, human MET (c-Met, hepatocyte growth …); test: cell-based or functional assay
[4] = biological target: T1, human MET (c-Met, hepatocyte growth …); test: flow cytometry, NCI-H1993 cells (endogenous MET), antibody 10 ug/ml; expressed as fold above unstained
Procedure: as §1

[5] = biological target: T1, human MET (c-Met, hepatocyte growth …); test: flow cytometry, MKN-45 cells (endogenous MET), antibody 10 ug/ml
Procedure: as §1

[6] = biological target: T1, human MET (c-Met, hepatocyte growth …); test: flow cytometry, EBC-1 cells (endogenous MET), antibody 10 ug/ml
Procedure: as §1

[7] = biological target: T1, human MET (c-Met, hepatocyte growth …); test: flow cytometry, MDA-MB-231 cells (endogenous MET, low), antibody 10 ug/ml
Procedure: as §1

[8] = biological target: T1, human MET (c-Met, hepatocyte growth …); test: flow cytometry, A549 cells (endogenous MET), antibody 10 ug/ml
Procedure: as §1

[9] = biological target: T1, human MET (c-Met, hepatocyte growth …); test: cell-based or functional assay; remark: listed apart in the source
[10] = biological target: T1, human MET (c-Met, hepatocyte growth …); test: flow cytometry, U87MG cells (endogenous MET, low), antibody 10 ug/ml
Procedure: as §1

[11] = biological target: T2, human MET (c-Met, HGFR) endogenously expressed on cell lines (human, UniProt P08581 25-1390); test: cell-based or functional assay
[12] = biological target: T2, human MET (c-Met, HGFR) endogenously …; test: cell-based or functional assay; remark: listed apart in the source

T1 sequence (P08581 25-1390 limits assumed, form in doubt): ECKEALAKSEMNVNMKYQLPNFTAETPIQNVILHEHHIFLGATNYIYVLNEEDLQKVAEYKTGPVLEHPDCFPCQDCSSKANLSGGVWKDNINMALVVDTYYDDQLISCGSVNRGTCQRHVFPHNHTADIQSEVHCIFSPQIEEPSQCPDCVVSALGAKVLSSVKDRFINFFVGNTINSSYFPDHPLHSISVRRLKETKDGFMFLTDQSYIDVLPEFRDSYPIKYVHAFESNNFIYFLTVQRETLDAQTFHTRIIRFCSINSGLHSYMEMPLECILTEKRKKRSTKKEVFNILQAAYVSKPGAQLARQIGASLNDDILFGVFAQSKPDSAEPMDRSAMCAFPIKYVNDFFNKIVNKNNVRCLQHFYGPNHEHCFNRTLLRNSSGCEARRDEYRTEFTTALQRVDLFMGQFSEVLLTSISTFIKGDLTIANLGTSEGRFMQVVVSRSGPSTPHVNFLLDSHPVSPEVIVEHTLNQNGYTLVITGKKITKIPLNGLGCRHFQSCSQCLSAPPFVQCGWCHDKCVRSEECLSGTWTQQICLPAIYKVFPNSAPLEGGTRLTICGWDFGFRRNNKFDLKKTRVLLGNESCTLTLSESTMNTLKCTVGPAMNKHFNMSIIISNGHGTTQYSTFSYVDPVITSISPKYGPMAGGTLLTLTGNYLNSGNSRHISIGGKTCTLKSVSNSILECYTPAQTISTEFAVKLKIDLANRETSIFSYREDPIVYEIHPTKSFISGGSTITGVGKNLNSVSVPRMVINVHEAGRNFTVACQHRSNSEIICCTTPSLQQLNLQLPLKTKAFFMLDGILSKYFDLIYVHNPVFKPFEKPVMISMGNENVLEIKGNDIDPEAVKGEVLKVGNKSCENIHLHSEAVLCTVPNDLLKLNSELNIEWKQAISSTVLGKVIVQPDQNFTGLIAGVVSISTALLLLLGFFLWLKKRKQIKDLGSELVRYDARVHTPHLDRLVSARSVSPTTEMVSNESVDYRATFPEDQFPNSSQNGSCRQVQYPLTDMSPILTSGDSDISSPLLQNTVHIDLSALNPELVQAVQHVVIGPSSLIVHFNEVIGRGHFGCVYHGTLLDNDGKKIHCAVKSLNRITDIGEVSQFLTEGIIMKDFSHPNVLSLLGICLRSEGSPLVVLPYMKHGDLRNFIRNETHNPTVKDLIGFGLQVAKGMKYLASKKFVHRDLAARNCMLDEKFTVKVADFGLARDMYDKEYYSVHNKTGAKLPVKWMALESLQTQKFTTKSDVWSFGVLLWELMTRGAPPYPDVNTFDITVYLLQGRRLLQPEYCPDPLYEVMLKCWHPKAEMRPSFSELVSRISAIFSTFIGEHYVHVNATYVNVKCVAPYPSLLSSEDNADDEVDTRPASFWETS
T2 sequence (P08581 25-1390): as the sequence (P08581 25-1390 limits assumed, form in doubt) above

| Binder | FACS Binding (MFI Fold Above Isotype Control) [1] | FACS Binding (MFI Fold Above Isotype Control) [2] | Relative MET Level, NCI-H596 cells, antibody 5 ug/ml, 18 hours, immunoblot [3] | FACS Binding (MFI fold above unstained, per footnote) [4] | FACS Binding (MFI Fold Above Isotype Control) [5] | FACS Binding (MFI Fold Above Isotype Control) [6] | FACS Binding (MFI Fold Above Isotype Control) [7] | FACS Binding (MFI Fold Above Isotype Control) [8] | % Inhibition (HEK293/SRE-Luc Blocking Activity, 1 h mAb pre-bind) [9] | EC50 (Ligand (HGF)-Independent HEK293/SRE-Luc Activation) [9] | Fold Response (Ligand (HGF)-Independent HEK293/SRE-Luc Activation) [9] | IC50 (HEK293/SRE-Luc Blocking Activity, 1 h mAb pre-bind) [9] | FACS Binding (MFI Fold Above Isotype Control) [10] | EC50 (read off the curve), HGF-independent SRE-luciferase activation [11] | IC50 (read off the curve), inhibition of HGF-induced SRE-luciferase signal [12] |
| --- | --- | --- | --- | --- | --- | --- | --- | --- | --- | --- | --- | --- | --- | --- | --- |
| H4H14639D (bispecific antibody, human IgG4, V domains shown, human IgG4 Fc; also called No. 122; MET×MET bispecific antibody) VH 1: EVQLVESGGGLVQPGTSLRLSCAASGFTFDDYAMHWVRQAPGKGLEWVSGITWNSYNIDYADSVKGRFTISRDNAKNSLYLQMNSLRAEDTALYYCAKDDDYSNYVYFDYWGQGTLVTVSS VH 2: EVQLVESGGGLVQPGGSLRLSCAASGFIVTTNYMTWLRQAPGKGLEWVSLIYSSGHTYYADSVKGRFTISRHNSKNTLYLQMDSLRAEDTAVYYCASAFAADVFDIWGQGTMVTVSS VL: not shown | 34 fold | 454 fold | 0.24 relative to control (hFc) | 188 fold | 156 fold | 252 fold | 12 fold | 10 fold | 95% | 0.057 nM | 1.8 fold | 0.024 nM | 18 fold | – | – |
| H4H14635D (bispecific antibody, human IgG4, V domains shown, human IgG4 Fc; also called No. 42; MET×MET bispecific antibody) VH 1: QVQLVESGGGVVQPGRSLRVSCVVSGFTFSSFGMHWVRQAPDKGLEWVAVIWYDGSNDYYSDSVKGRFTISRDNSKNTLFLQMNRLRAEDTAVYYCARANNWNRFDAFDLWGQGTMVTVSS VH 2: EVQLVESGGGLVQPGGSLRLSCAASGFIVTTNYMTWLRQAPGKGLEWVSLIYSSGHTYYADSVKGRFTISRHNSKNTLYLQMDSLRAEDTAVYYCASAFAADVFDIWGQGTMVTVSS VL: not shown | 39 fold | 477 fold | – | – | 183 fold | 263 fold | 11 fold | 12 fold | 85% | 1.4 nM | 2.2 fold | 0.19 nM | 18 fold | – | – |
| H4H13312P2 (antibody, human IgG4, V domains shown) VH: EVQLVESGGGLVQPGGSLRLSCAASGFIVTTNYMTWLRQAPGKGLEWVSLIYSSGHTYYADSVKGRFTISRHNSKNTLYLQMDSLRAEDTAVYYCASAFAADVFDIWGQGTMVTVSS VL: not shown | – | – | – | – | – | – | – | – | – | – | – | – | – | ~0.4 nM | – |
| H4H14639D (bispecific antibody, V domains shown) VH 1: EVQLVESGGGLVQPGTSLRLSCAASGFTFDDYAMHWVRQAPGKGLEWVSGITWNSYNIDYADSVKGRFTISRDNAKNSLYLQMNSLRAEDTALYYCAKDDDYSNYVYFDYWGQGTLVTVSS VH 2: EVQLVESGGGLVQPGGSLRLSCAASGFIVTTNYMTWLRQAPGKGLEWVSLIYSSGHTYYADSVKGRFTISRHNSKNTLYLQMDSLRAEDTAVYYCASAFAADVFDIWGQGTMVTVSS VL: not shown | – | – | – | – | – | – | – | – | – | – | – | – | – | – | ~0.4 nM |
